Target: angiotensin II-bound mouse angiotensin II type 1 receptor F117W Δ324 (mouse | human)
Assay: cross-linking + other: high-mass MALDI-MS; angiotensin II-bound AT1R (angII-AT1R), 5 µM, mixed with partner protein at various concentrations, 1 h at room temperature, BS(PEG)9 cross-linking, 1.0 µM β-Gal as internal standard; 20 mM Hepes pH 7.5, 40 mM NaCl, 0.01% LMNG; Ka = 1/Kd

Ka: 480000 M⁻¹
B1: mini-Gq (domain or fragment)
chain: GIEKQLQKDKQVYRATHRLLLLGADNSGKSTIVKQMRILHGGSGGSGGTSGIFETKFQVDKVNFHMFDVGGQRDERRKWIQCFNDVTAIIFVVDSSDYNRLQEALNDFKSIWNNRWLRTISVILFLNKQDLLAEKVLAGKSKIEDYFPEFARYTTPEDATPEPGEDPRVTRAKYFIRDEFLRISTASGDGRHYCYPHFTCAVDTENARRIFNDCKDIILQMNLREYNLV

Reference: PMC8346855
